Our source for the Kd values is patent US20110166036A1.

The experiment deals with recombinant human sortilin (human) (UniProt Q99523). Put plainly: SPR (BIAcore), sortilin immobilized on CM5 chip, ApoB 10, 20, 50 nM.
Sequence of recombinant human sortilin (human) (Q99523 78-755 limits assumed, form in doubt): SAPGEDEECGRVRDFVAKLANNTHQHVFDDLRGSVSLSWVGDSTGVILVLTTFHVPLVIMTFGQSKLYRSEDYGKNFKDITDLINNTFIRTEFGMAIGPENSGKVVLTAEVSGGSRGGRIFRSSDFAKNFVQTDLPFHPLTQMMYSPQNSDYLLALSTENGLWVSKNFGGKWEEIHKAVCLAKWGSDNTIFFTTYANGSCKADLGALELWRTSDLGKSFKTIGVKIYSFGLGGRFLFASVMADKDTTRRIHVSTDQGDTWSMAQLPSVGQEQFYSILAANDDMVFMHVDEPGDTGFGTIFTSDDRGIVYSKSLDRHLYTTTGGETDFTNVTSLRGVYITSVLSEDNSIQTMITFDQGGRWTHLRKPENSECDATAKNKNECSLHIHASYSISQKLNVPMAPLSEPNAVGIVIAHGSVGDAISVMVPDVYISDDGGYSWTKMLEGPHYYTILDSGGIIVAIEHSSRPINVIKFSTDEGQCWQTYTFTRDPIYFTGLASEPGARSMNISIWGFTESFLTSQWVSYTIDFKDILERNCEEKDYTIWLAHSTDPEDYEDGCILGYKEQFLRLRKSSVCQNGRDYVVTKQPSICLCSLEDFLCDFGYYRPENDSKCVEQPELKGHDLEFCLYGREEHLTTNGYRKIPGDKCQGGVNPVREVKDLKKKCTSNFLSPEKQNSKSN

Consider ApoB (ligand), for which the Kd came out at 0.4 nM.
